The source of these data is doi:10.1101/2024.11.27.625426 (bioRxiv, 2024).

This assay addresses unmodified NA of A/Vietnam/1203/2004 (VN04, H5N1) (Influenza A virus A/Vietnam/1203/2004 …, UniProt Q6DPL2). Put plainly: ELISA. To be noted: both partners purified. (In general: In an ELISA, binding on a coated surface is turned into a signal by an enzyme label.)

B1: NCS.1.1 mAb (IgG) (antibody, V domains shown)
VH: QVQLQESGPRLVKPSETLSLTCSVSGESISSGGYYWTWIRQHPGKGLEWIGNIFDTGSTDYSPSLKTRLTISIDTSKNQFYLRLNSATAADTAVYYCARVGFSLETDRPYYLGLDVWGQGTTVTVSS
VL: DIVMTQSPLSLPVTPGEPASISCRSSQSLLHSNGYTYLDWYLQKPGQSPQLLISFTSNRASGVPDRFSGSGSGTYFTLKISRVEAEDVGVYYCMQAVQTPWTFGQGTKVEIK
notes: copies: 2 + 2
For the molecule B1, the binding result is recorded as “binds”.

B2: NCS.1.3 mAb (IgG) (antibody, V domains shown)
VH: QVQLQESGPRLVKPSETLSLTCSVSGESISSGGYYWTWIRQHPGKGLEWIGNIFDTGSTDYSPSLKTRLTISIDTSKNQFYLRLTSATAADTAVYYCARVGFSLETDRPYYLGLDVWGQGTTVTVSS
VL: DIVMTQSPLTLPVTPGEPASISCRSSQSLLHSNGYTYLDWYLQKPGQSPQLLIYFASNRASGVPDRFSGSGSGTYFTLKISRVEAEDVGVYYCMQAVQSPWTFGQGTKVEIK
notes: copies: 2 + 2
B2: the binding result is “binds”.
